Substitutions are numbered along the chain they refer to.
Tests used:
[1] = target: T1, human PD-1 (amino acids 1-185) stably expressed on Jurkat cells (human, UniProt Q15116 21-185); test: flow cytometry, Jurkat+hPD-1, multiple experiments
T1 construct: extracellular domain and a portion of the transmembrane domain, on cells; also called hPD-1; Jurkat+hPD-1 cell line
Protocol: (§1) Antibodies or antibody-attenuated hIL-2 immunoconjugates (fusion proteins) were serially diluted six-fold in FACS buffer for an 8-point curve and added to human PD-1 expressing Jurkat cells for 1 hour on ice in 100 μL volume. Cells were washed and re-suspended in FACS buffer containing 1:40 dilution of Allophycocyanin conjugated anti-human IgG Fc monoclonal antibody. Cells were washed once more, re-suspended in FACS buffer containing 1:1000 dilution of Sytox Green (Thermo Fisher) and flow cytometric analysis was conducted on the BD FACS Canto II, BD Celesta or BD Fortessa (BD Biosciences) flow cytometers. The geometric mean fluorescent intensity (gMFI) was calculated using FlowJo software version 10. Half maximal effective concentration (EC₅₀) values were calculated from the gMFI of the Allophycocyanin signal across the titrated concentrations using GraphPad Prism 7 software.
(§2) The anti-PD-1 variable region sequences were expressed as human IgG4 kappa antibodies and were evaluated for the ability to bind to PD-1 expressing cells using flow cytometry as described in General Methods Protocol A. Antibodies to be tested were first screened for binding to human PD-1 using a Jurkat cell line expressing recombinant human PD-1 (Jurkat+hPD-1 cell line).

[2] = target: human PD-1 on Jurkat Effector cells (Promega PD-1/PD-L1 blockade bioassay) (human, UniProt Q15116 25-288); test: cell-based or functional assay
[3] = target: T1, human PD-1 (amino acids 1-185) stably …; test: flow cytometry, Jurkat+hPD-1
Protocol: as §1, §2

[4] = target: T1, human PD-1 (amino acids 1-185) stably …; test: flow cytometry, Jurkat+hPD-1 cells, APC anti-human IgG Fc, gMFI; no competitor
Protocol: Briefly, Jurkat cells stably expressing hPD-1 (as described in Protocol A above) were washed and re-suspended in FACS buffer containing 1:50 dilution of human FcR Blocking reagent. Cells were incubated at 4° C. for 10 minutes and washed. […] Cells were washed and incubated with test antibodies or antibody-attenuated hIL-2 fusion proteins serially diluted six-fold for an 8-point curve in 100 μL volume for one hour at 4° C. To detect bound test anti-hPD-1 antibodies or anti-hPD-1-attenuated hIL-2 fusion proteins, cells were washed again and incubated with 1:40 dilution of Allophycocyanin-conjugated anti-human IgG Fc monoclonal antibody for 45 minutes on ice. Cells were washed and re-suspended in FACS buffer containing 1:1000 dilution of Sytox Green (Thermo Fisher). […] Flow cytometry was carried out on the BD Canto II, BD Celesta, or BD Fortessa (BD Biosciences) flow cytometers and gMFI was calculated using FlowJo software version 10. EC₅₀ values were calculated from the gMFI of the Allophycocyanin signal across the titrated concentrations using GraphPad Prism 7 software.

T1 sequence (Q15116 21-185 limits assumed, form in doubt): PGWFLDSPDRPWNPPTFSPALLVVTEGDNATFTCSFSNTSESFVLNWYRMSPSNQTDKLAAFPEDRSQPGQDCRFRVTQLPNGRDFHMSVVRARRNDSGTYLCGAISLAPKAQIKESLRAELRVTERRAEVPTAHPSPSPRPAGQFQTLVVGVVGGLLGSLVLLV
Chain of human PD-1 on Jurkat Effector cells (Promega PD-1/PD-L1 blockade bioassay) (Q15116 25-288): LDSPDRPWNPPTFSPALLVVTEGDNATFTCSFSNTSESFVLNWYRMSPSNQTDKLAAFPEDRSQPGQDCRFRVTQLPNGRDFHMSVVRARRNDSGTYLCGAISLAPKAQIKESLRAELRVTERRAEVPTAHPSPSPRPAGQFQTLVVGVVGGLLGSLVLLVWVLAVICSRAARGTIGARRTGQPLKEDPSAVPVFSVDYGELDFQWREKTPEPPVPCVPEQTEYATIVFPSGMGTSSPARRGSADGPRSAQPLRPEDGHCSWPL

B1: 2A3.H7-hIgG4 (antibody, V domains shown)
VH: EVQLLESGGGLVQPGGSLRLSCAASGFTFKDYCMTWVRQAPGKGLEWVSAIVYSGGSTYYADSVKGRFTISRDNSKNTLYLQMNNLRAEDTAVYYCAKYTRASYFYDAMDVWGQGTTVTVSS
VL: EIVLTQSPGTLSLSPGERATLSCRASQSIGRSFLAWYQQKPGQAPRLLIYDASTRAADIPARFSGSGSGTDFTLTISSLEPEDFAVYYCQQYYDWPPLSFGGGTKVEIKR
[1]
  EC50: 0.1 to 0.3 nM
[2]
  luminescence, hPD-1/hPD-L1 blockade bioassay: ~3000 RLU

B2: 1D5-hIgG4 (antibody, V domains shown)
VH: B1 VH with A23V, A24G, T28N, N85S, A102G
VL: B1 VL with A57T, A61D, D71E, E80Q, P81S, S99T
[1]
  EC50: 0.1 to 0.3 nM
[2]
  luminescence, hPD-1/hPD-L1 blockade bioassay: ~3000 RLU

B3: 2H7-hIgG4 (antibody)
heavy: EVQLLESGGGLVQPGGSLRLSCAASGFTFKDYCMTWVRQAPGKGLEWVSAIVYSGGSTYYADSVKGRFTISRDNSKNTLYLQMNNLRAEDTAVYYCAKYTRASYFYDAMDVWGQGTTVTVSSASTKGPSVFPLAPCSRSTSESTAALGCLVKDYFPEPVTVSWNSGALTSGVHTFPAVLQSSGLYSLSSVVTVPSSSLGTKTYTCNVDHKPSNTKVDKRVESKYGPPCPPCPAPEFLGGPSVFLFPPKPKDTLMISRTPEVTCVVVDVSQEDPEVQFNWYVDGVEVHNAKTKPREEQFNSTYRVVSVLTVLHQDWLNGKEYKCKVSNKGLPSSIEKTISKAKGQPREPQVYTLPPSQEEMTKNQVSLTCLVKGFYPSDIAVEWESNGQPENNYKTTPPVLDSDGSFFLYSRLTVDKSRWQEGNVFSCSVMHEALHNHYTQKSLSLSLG
light: EIVLTQSPGTLSLSPGERATLSCRASQSIGKSFLAWYQQKPGQAPRLLIYDASTRAADIPARFSGSGSGTDFTLTISSLEPEDFAVYYCQQYYDWPPLSFGGGTKVEIKRTVAAPSVFIFPPSDEQLKSGTASVVCLLNNFYPREAKVQWKVDNALQSGNSQESVTEQDSKDSTYSLSSTLTLSKADYEKHKVYACEVTHQGLSSPVTKSFNRGEC
notes: human IgG4 kappa
[1]
  EC50: 0.1 to 0.3 nM

B4: 1H9-hIgG4 (antibody, V domains shown)
VH: B1 VH with A23V, A24G, T28N, F29L, N85S, A102G
VL: B1 VL with A61D, S77N, S78R, S99T
[1]
  EC50: 0.1 to 0.3 nM
[2]
  luminescence, hPD-1/hPD-L1 blockade bioassay: ~3000 RLU

B5: OMC.1.B6-hIgG4 (antibody, V domains shown)
VH: EVQLLESGGGLVQPGGSLRLSCAASGFTFSSNYMSWVRQAPGKGLEWVSAISSSGGTIFYADSVKGRFTISRDNSKNTLYLQMNSLRAEDTAVYYCAKHKWNAVYYDGMDVWGQGTTVTVSS
VL: QSVLTQPPSASGTPGQRVTISCSGSNSNIGRNLVNWYQQLPGTAPKLLIYTIDQRPSGVPDRFSGSKSGTSASLVISGLQSEDEADYYCAAWDGSLNAWVFGGGTKLTVLG
[3]
  EC50: 3 to 16 nM
[2]
  luminescence, hPD-1/hPD-L1 blockade bioassay: ~3000 RLU

B6: OMC.1.D6-hIgG4 (antibody, V domains shown)
VH: B5 VH with S31D, N32Y, T69I, A103D, G108A
VL: B5 VL with I52V, V75A, Q80A, G94S, A98S
[3]
  EC50: 3 to 16 nM
[2]
  luminescence, hPD-1/hPD-L1 blockade bioassay: ~3000 RLU

B7: OMC.2.C6-hIgG4 (antibody, V domains shown)
VH: EVQLLESGGGLVQPGGSLRLSCTASGFTFSSYEMQWVRQAPGKGLEWVLGITSSSSHIFYADSVKGRFTVSRDNSKNTLYLQMNSLRAEDTAVYYCTKDLNSYYGLDVWGQGTTVTVSS
VL: QSVMTQPPSASGTPGQRVTISCSGSTSNLGNNYVSWYQHLPGTAPKLLIYGNDQRPSGVPDRFSGSKSGTSASLAISGLQSDDEADYYCSSWDASLNVWVFGGGTKLTVLG
[3]
  EC50: 3 to 16 nM
[2]
  luminescence, hPD-1/hPD-L1 blockade bioassay: ~3000 RLU

B8: C51E6-5-hIgG4 (antibody, V domains shown)
VH: QVQLVQSGSELKKPGASVKVSCKASGYSLYGTSMHWVRQAPGQGLEWMGYISPFTGRATYAQGFTGRFVFSLDTSVSTAYLQISSLKAEDTAVYYCARDYDYRYYYAMDYWGQGTTVTVSS
VL: EIVLTQSPDFQSVTPKEKVTITCTASESVPPQFLHWYQQKPDQSPKLLIYASRERASGVPSRFSGSGSGTDFTLTINSLEAEDAATYYCHQFHRSPLTFGGGTKLEIKR
[4]
  EC50 (read off the curve): ~3 nM

B9: A2-hIgG4 (antibody, V domains shown)
VH: DVQLVESGGGLVQPGGSLRLSCAASGFTFDISAMSWVRQAPGKGLEWVSTISGSAYSTYYADSVKGRFTISRDNSKSTLYLQMNSLRAEDTAVYYCAREIFSDYWGLGTLVTVSS
VL: QSVLTQPPSASGTPGQRVTISCSGSTSNIGRESVYWYQQLPGTAPKLLIYSNVQRPSGAPNRFSGSKSGTSASLAISGLQSEDEADYYCGTWDDSLNGWVFGGGTKLTVLG
[3]
  EC50: 3 to 16 nM
